In publication PMC8875425 (ACS Central Science, 2022) one finds IC50 data, which are given here for 2 molecules.

In test [1] the target is KIX domain of CREB-binding protein (CBP) (UniProt P45481 588-672). Kind of test: fluorescence polarisation. Background: Polarisation of emitted light reports the rotation of a fluorescent probe.
The target in test [2] is MBP-KIX-apoferritin construct 3 (24-mer double-shell complex) (not stated | mouse). Kind of test: fluorescence polarisation.

Square brackets hold non-standard residues; d marks the D form. pS = N[C@@H](COP(=O)(O)O)C(=O)O

A word on the IC50: it is the point on the concentration scale where inhibition reaches its midpoint. A higher IC50 goes with a need for much substance.

KIX domain of CREB-binding protein (CBP), sequence (P45481 588-672): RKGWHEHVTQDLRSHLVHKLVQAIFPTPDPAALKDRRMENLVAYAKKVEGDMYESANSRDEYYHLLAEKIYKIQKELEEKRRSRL

For the molecule Ac-LSRRP[pS]YRKILNDLSSDAP-NH2 [peptide 7], the IC50 in test [1] was 50 µM; in test [2], 311 µM.
Regarding Ac-LKRRP[pS]YRKILNDLSSDAP-NH2 [peptide 7′], the IC50 in test [1] came out at 24.2 µM; in test [2], 170 µM.
